Common to all, as to format: cell-based
One data set deals with T1, human TSH-receptor (Homo sapiens, UniProt P16473).
T1 construct: expressed in transfected cells; host or cells: 293 (human embryonic kidney) cells
Briefly: TSH-stimulated adenylyl cyclase in TSH-R-transfected 293 cells. As to conditions: agouti 0.7 nM. The protocol:
293 cells (5×10^5) and 293 cells expressing human TSH-R were preloaded with 5 μCi ^3H-adenine for 1.5 h at 37° C. in a 5% CO2 incubator.
Medium was aspirated and 2.5% perchloric acid containing 0.1 mM cAMP was used to stop the incubation. Adenylyl cyclase activity was calculated by determining the percent conversion of ^3H-adenine to ^3H-cAMP as described (Salomon, 1991; Johnson and Salomon, 1991). Correlation of cAMP accumulation measured in this assay with actual adenylyl cyclase activity is made under the assumption that isobutymethylxanthine effectively blocks cAMP degradation. Data represent means and standard deviations from triplicate data points.

Another data set concerns the target T2, human MSH-R (Homo sapiens, UniProt Q01726).
T2 construct: expressed in transfected cells; host or cells: human embryonic kidney 293 cells (printed '292')
Briefly: activation of human MSH-R in 293 cells (adenylyl cyclase). As to conditions: 0.7 nM agouti.

Data set [1] concerns the target T3, human melanocortin 1 receptor (hMC1R) (Homo sapiens, UniProt Q01726).
T3 construct: The coding region of the human melanocortin 1, 3, and 5 receptor (hMC1R, hMC3R, and hMC5R) genes was amplified; expressed in transfected cells; host or cells: HEK-293 cells, cotransfected with pMT4 construct and pRSV-Neo, geneticin-selected clones
The data set can be described thus: [Ca2+]i in HEK-293 cells transfected with hMC1R. As to conditions: FIG. 48, plateau at 400 s. The protocol:
The coding region of the human melanocortin 1, 3, and 5 receptor (hMC1R, hMC3R, and hMC5R) genes was amplified by polymerase chain reaction and subcloned into the vector pMT4, and the sequence was verified. HEK-293 cells, which appear to lack endogenous melanocortin receptors (Lu et al., 1994), were cotransfected with pMT4 and pRSV-Neo by either calcium phosphate coprecipitation method or the use of Transfectam reagent (Promega). Clones were selected using 600 μg geneticin/ml. culture medium.
[Ca^2+]i was measured in L6, A7r5, and HEK-293 cells (Zemel et al., 1995) as previously described and in 3T3-L1 cells as described by Klip and Ramlal (1987). Monolayers of nonfused L6 cells and confluent A7r5 cells after 14-16 h of starvation in a serum-free culture medium were rinsed with Hanks' balanced salt solution (HBSS), detached by incubation in 2 ml trypsin (0.05%) for 2-3 min at 37° C., and released by pipetting without trypsinization. Cells were harvested by centrifugation at 50 g and resuspended in 1 ml HBSS at a density of ˜10^6 cells/ml. For 3T3-L1 cells, monolayers of differentiated adipocytes were rinsed with serum-free DMEM and exposed to 0.05% trypsin for 3 min. The solution was decanted, and the cells were incubated for 3 min in culture medium. Cells were detached by pipetting and collected by centrifugation at 50 g. Cells were then incubated in culture medium to recover for 1 h followed by incubation in serum-free DMEM for 4 h at 37° C. in an atmosphere of 5% CO2, collected by centrifugation, and resuspended in HBSS at a density of ˜10^6 cells/ml. Cell suspensions were chilled on ice for 5 min and loaded with […] (final concn) fura 2 acetoxymethyl ester (AM; Sigma) in the dark for 20 min at 37° C. For 3T3-L1 adipocytes, the chilling step was skipped. […] [Ca^2+]i levels were then measured fluorometrically in suspensions using dual excitation (340 and 380 nm)-single emission (510 nm) fluorometry as previously described (Zemel et al., 1995). [Ca^2+]i was then calculated by the computer in the fluorometer with the equation of Grynkiewicz et al. (1985). […]

T3 sequence (Q01726 whole entry): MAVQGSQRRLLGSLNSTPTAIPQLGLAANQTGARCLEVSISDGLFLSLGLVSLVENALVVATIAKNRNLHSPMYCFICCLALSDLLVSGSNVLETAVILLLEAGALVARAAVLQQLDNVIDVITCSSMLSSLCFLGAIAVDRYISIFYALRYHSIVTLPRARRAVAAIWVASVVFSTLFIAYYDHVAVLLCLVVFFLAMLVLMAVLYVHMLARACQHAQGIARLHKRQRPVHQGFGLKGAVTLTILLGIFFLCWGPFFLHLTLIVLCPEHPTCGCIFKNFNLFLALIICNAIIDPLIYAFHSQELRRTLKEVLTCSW
T1 sequence (P16473 21-764): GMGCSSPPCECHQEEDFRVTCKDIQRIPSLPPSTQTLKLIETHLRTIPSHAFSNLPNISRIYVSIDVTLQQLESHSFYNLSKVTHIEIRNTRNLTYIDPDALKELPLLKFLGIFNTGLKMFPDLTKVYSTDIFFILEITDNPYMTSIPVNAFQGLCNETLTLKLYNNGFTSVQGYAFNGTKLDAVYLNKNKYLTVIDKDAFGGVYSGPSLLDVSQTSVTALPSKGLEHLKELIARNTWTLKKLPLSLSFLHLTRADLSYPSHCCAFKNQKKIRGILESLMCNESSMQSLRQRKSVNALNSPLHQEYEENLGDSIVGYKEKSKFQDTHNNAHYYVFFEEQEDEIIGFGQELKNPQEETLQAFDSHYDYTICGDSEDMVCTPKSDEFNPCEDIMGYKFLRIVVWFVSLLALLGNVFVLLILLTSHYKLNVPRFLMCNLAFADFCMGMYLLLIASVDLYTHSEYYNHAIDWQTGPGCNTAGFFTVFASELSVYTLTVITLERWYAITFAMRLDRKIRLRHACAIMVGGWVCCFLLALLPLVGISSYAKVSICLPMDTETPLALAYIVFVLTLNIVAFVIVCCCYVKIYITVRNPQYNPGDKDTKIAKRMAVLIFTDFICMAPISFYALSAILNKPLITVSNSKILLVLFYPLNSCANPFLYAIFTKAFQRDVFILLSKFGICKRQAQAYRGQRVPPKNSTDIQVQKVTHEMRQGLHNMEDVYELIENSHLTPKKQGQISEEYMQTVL
T2 sequence (Q01726 whole entry): as the sequence (Q01726 whole entry) above

B1: agouti: recombinant mouse agouti protein (131 amino acids, SEQ ID NO:2) produced with the baculovirus expression system in T. ni cells (protein, listed as Mus musculus)
chain: MDVTRLLLATLVSFLCFFTVHSHLALEETLGDDRSLRSNSSMNSLDFSSVSIVALNKKSKKISRKEAEKRKRSSKKKASMKKVARPPPPSPCVATRDSCKPPAPACCDPCASCQCRFFGSACTCRVLNPNC
For B1, the “effect on ability of TSH to bind its receptor and stimulate adenylyl cyclase” value with human TSH-receptor was “no effect”. Also, in the data set with human MSH-R, the “inhibition of MSH-R activation” value is listed as “No inhibition”. Further, the “Vmax of [Ca2+]i dose-response fit” value in data set [1] is reported as 108.2±1.337. In addition, the EC50 in data set [1] (read-out: K of [Ca2+]i dose-response fit) is 0.0184 ± 0.000706 µM.

The values are drawn from patent US6514747B2 (UT-Battelle, LLC, priority 1993, dated 2003).
